Biological target: YB-1 (expressed from YB-1/RSV) (Homo sapiens) (UniProt P67809)
Assay: cell_activity
Settings: human glioblastoma cells

Row | Substance | activity (relative CAT activity) (repression, empty vector pRc/RSV = 1.0) | activity (relative CAT activity) (no repression, empty vector pRc/RSV = 1.1)
1 | COL1A2 promoter -161 to +57 CAT binding reporter | 0.6 | 
2 | COL1A2 promoter -161 to +57 CAT non-binding reporter |  | 1
